Experimental data as given in PMC10607449, “Structural Characterization of an N-Acetyl Sugar Amidotransferase Involved in the Lipopolysaccharide Biosynthesis in Bacteria” (International Journal of Molecular Sciences, 2023).

Biological target: the molecule itself
Assay: SEC

B1: N-acetyl sugar amidotransferase from Legionella pneumophila (enzyme)
chain: MSNARIGIDMSKIYAPKSIDLSSFQLPDEKLQTKYGLPHKVEFCKSCVISNQRPNSAVEYEHKKESKKHTIHFDDEGICDACRVAERKKSTINWEERDRQLRELCDRFRSKDGSYDCVVPGSGGKDSFYAAHILKYKYGMNPLTVTWAPHMYTPWGWRNFQSWIHAGFDNHLFTPNGRVHRLLTRLAVENLFHPFQPFMIGQKAYAPKMALLHKIKLVVYGENEAEYGNPIGDTESAKRDWKYFTADDKSKIFLGGTSVQELKSDFGLNDNDLDAYLPADPQQIEEQQVEVHYLGYYLKWHPQSCYYYSVEHGGFEASPERTPGTYSKYNSIDDKIDDFHYYTTLTKFGIGRATYDASQEIRSGDITREEGVALVKRFDQEFPERFAEEIFKYLSINLKEFPIASQMFEQPIMDRAYFMALADTFRSPHLWKKDGEQWKLRHQVTNLEKTKAEYLDLETV
notes: also called LpNASAT; NASAT
  stoichiometry N: 2
